Measured values taken from US20120082682A1 (GlaxoSmithKline, published 2012).
Read-outs that look alike come from different tables or passages of the source.

T1: human IL-4 (recombinant E. coli-expressed) (human, UniProt P05112 25-153)
T1 sequence (looked up): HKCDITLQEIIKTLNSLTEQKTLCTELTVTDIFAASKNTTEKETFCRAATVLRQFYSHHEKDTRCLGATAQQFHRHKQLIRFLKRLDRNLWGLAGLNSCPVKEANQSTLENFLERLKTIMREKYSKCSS


What was measured:
[1] = molecular target: T1, human IL-4 (recombinant E. …); test: Biacore T100 SPR, Protein A capture (CM5), human IL4 analyte, 1:1 fit
Protocol: Purified mAbs and mAbdAb constructs were tested in a BIAcore assay to determine whether the mutation of position 89 had any effect on the binding of the dAb to IL-4.
Protein A was immobilised on a CM5 chip by primary amine coupling; this surface was used as a capture surface for the antibody molecules to be tested. […] Regeneration of the […] surface was achieved using 50 mM NaOH. The assay was run at 25° C. using HBS-EP as running buffer. The data was fitted to 1:1 model inherent to the Biacore T100 analysis software.

[2] = molecular target: T1, human IL-4 (recombinant E. …); test: as above; remark: listed apart in the source
Protocol: Protein A was immobilised on a CM5 chip by primary amine coupling; this surface was used as a capture surface for the antibody molecules to be tested.
All binding curves were double referenced with a 0 nM injection (i.e. buffer alone). Regeneration of the Protein A surface was with 50 mM NaOH. The assay was run at 25° C. using HBS-EP as running buffer. The data was fitted to 1:1 model inherent to the Biacore T100 analysis software.

[3] = molecular target: T2, human IL-13 (recombinant E. coli-expressed) (human, UniProt P35225 35-146); test: Biacore T100 SPR, mAb (supernatant) captured on anti-human IgG, IL13 analyte, 1:1 fit
T2 construct: also called hIL-13
Description: Table 1 details the overall affinities (equilibrium dissociation constant KD) for the selected constructs from the ProteOn screen and the T100 run

[4] = molecular target: T2, human IL-13 (recombinant E. …); test: ProteOn XPR36 SPR, mAb (supernatant) captured on anti-human IgG, IL13 analyte, 1:1 fit
Protocol: The initial screen of CDRH3 mutants was carried out on the ProteOn XPR36 (Biorad). […] 3M MgCl₂ was used to regenerate the capture surface, removing the bound CDRH3 mutant antibodies ready for another cycle of capture and analyte injection. The data was fitted to the 1:1 model using the software inherent to the machine.

T2 sequence (P35225 other isoform, or with tags, fused parts or gaps limits assumed): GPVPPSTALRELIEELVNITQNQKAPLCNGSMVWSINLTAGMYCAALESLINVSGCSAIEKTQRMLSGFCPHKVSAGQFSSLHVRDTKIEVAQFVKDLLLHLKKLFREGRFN

Binder	Kd [1] [nM]	koff [1] [s⁻¹]	kon [1] [M⁻¹ s⁻¹]	Kd [2] [nM]	koff [2] [s⁻¹]	kon [2] [M⁻¹ s⁻¹]	Kd [3] [nM]	Kd [4] [nM]
BPC1090 (bispecific antibody, human IgG1, kappa, mAbdAb; dAb DOM9-155-154 with Kabat 89 G; also called 829H-(TVAAPS)2GS-154 (89G)) heavy: not shown light: DIVMTQSPLSLPVTPGEPASISCRSSQNIVHINGNTYLEWYLQKPGQSPRLLIYKISDRFSGVPDRFSGSGSGTDFTLKISRVEADDVGIYYCFQGSHVPWTFGQGTKLEIKRTVAAPSVFIFPPSDEQLKSGTASVVCLLNNFYPREAKVQWKVDNALQSGNSQESVTEQDSKDSTYSLSSTLTLSKADYEKHKVYACEVTHQGLSSPVTKSFNRGEC	0.152	0.000455	3e+06	0.096	0.000416	4.34e+06	–	–
BPC1092 (bispecific antibody, human IgG1, kappa, mAbdAb; dAb Kabat 89 H; also called 829H-(TVAAPS)2GS-154 (89H)) heavy: not shown light: DIVMTQSPLSLPVTPGEPASISCRSSQNIVHINGNTYLEWYLQKPGQSPRLLIYKISDRFSGVPDRFSGSGSGTDFTLKISRVEADDVGIYYCFQGSHVPWTFGQGTKLEIKRTVAAPSVFIFPPSDEQLKSGTASVVCLLNNFYPREAKVQWKVDNALQSGNSQESVTEQDSKDSTYSLSSTLTLSKADYEKHKVYACEVTHQGLSSPVTKSFNRGEC	1.79	0.00534	2.98e+06	1.71	0.00389	2.27e+06	–	–
BPC1108 (bispecific antibody, human IgG1, kappa, mAbdAb; dAb Kabat 89 C; also called 829H-(TVAAPS)2GS-154 (89C)) heavy: not shown light: DIVMTQSPLSLPVTPGEPASISCRSSQNIVHINGNTYLEWYLQKPGQSPRLLIYKISDRFSGVPDRFSGSGSGTDFTLKISRVEADDVGIYYCFQGSHVPWTFGQGTKLEIKRTVAAPSVFIFPPSDEQLKSGTASVVCLLNNFYPREAKVQWKVDNALQSGNSQESVTEQDSKDSTYSLSSTLTLSKADYEKHKVYACEVTHQGLSSPVTKSFNRGEC	–	–	–	0.281	0.00123	4.38e+06	–	–
BPC1116 (bispecific antibody, human IgG1, kappa, mAbdAb; dAb Kabat 89 V; also called 829H-(TVAAPS)2GS-154 (89V)) heavy: not shown light: DIVMTQSPLSLPVTPGEPASISCRSSQNIVHINGNTYLEWYLQKPGQSPRLLIYKISDRFSGVPDRFSGSGSGTDFTLKISRVEADDVGIYYCFQGSHVPWTFGQGTKLEIKRTVAAPSVFIFPPSDEQLKSGTASVVCLLNNFYPREAKVQWKVDNALQSGNSQESVTEQDSKDSTYSLSSTLTLSKADYEKHKVYACEVTHQGLSSPVTKSFNRGEC	–	–	–	0.402	0.00274	6.82e+06	–	–
BPC1110 (bispecific antibody, human IgG1, kappa, mAbdAb; dAb Kabat 89 W; also called 829H-(TVAAPS)2GS-154 (89W)) heavy: not shown light: DIVMTQSPLSLPVTPGEPASISCRSSQNIVHINGNTYLEWYLQKPGQSPRLLIYKISDRFSGVPDRFSGSGSGTDFTLKISRVEADDVGIYYCFQGSHVPWTFGQGTKLEIKRTVAAPSVFIFPPSDEQLKSGTASVVCLLNNFYPREAKVQWKVDNALQSGNSQESVTEQDSKDSTYSLSSTLTLSKADYEKHKVYACEVTHQGLSSPVTKSFNRGEC	–	–	–	1.63	0.00173	1.07e+06	–	–
BPC1091 (bispecific antibody, human IgG1, kappa, mAbdAb; dAb Kabat 89 S; also called 829H-(TVAAPS)2GS-154 (89S)) heavy: not shown light: DIVMTQSPLSLPVTPGEPASISCRSSQNIVHINGNTYLEWYLQKPGQSPRLLIYKISDRFSGVPDRFSGSGSGTDFTLKISRVEADDVGIYYCFQGSHVPWTFGQGTKLEIKRTVAAPSVFIFPPSDEQLKSGTASVVCLLNNFYPREAKVQWKVDNALQSGNSQESVTEQDSKDSTYSLSSTLTLSKADYEKHKVYACEVTHQGLSSPVTKSFNRGEC	0.244	0.000966	3.96e+06	0.168	0.00102	6.05e+06	–	–
BPC1114 (bispecific antibody, human IgG1, kappa, mAbdAb; dAb Kabat 89 N; also called 829H-(TVAAPS)2GS-154 (89N)) heavy: not shown light: DIVMTQSPLSLPVTPGEPASISCRSSQNIVHINGNTYLEWYLQKPGQSPRLLIYKISDRFSGVPDRFSGSGSGTDFTLKISRVEADDVGIYYCFQGSHVPWTFGQGTKLEIKRTVAAPSVFIFPPSDEQLKSGTASVVCLLNNFYPREAKVQWKVDNALQSGNSQESVTEQDSKDSTYSLSSTLTLSKADYEKHKVYACEVTHQGLSSPVTKSFNRGEC	–	–	–	0.656	0.00255	3.89e+06	–	–
BPC1118 (bispecific antibody, human IgG1, kappa, mAbdAb; dAb Kabat 89 F; also called 829H-(TVAAPS)2GS-154 (89F)) heavy: not shown light: DIVMTQSPLSLPVTPGEPASISCRSSQNIVHINGNTYLEWYLQKPGQSPRLLIYKISDRFSGVPDRFSGSGSGTDFTLKISRVEADDVGIYYCFQGSHVPWTFGQGTKLEIKRTVAAPSVFIFPPSDEQLKSGTASVVCLLNNFYPREAKVQWKVDNALQSGNSQESVTEQDSKDSTYSLSSTLTLSKADYEKHKVYACEVTHQGLSSPVTKSFNRGEC	–	–	–	0.405	0.00258	6.39e+06	–	–
BPC1094 (bispecific antibody, human IgG1, kappa, mAbdAb; dAb Kabat 89 A; also called 829H-(TVAAPS)2GS-154 (89A)) heavy: not shown light: DIVMTQSPLSLPVTPGEPASISCRSSQNIVHINGNTYLEWYLQKPGQSPRLLIYKISDRFSGVPDRFSGSGSGTDFTLKISRVEADDVGIYYCFQGSHVPWTFGQGTKLEIKRTVAAPSVFIFPPSDEQLKSGTASVVCLLNNFYPREAKVQWKVDNALQSGNSQESVTEQDSKDSTYSLSSTLTLSKADYEKHKVYACEVTHQGLSSPVTKSFNRGEC	1.95	0.00373	1.91e+06	2.08	0.00304	1.46e+06	–	–
BPC1109 (bispecific antibody, human IgG1, kappa, mAbdAb; dAb Kabat 89 R; also called 829H-(TVAAPS)2GS-154 (89R)) heavy: not shown light: DIVMTQSPLSLPVTPGEPASISCRSSQNIVHINGNTYLEWYLQKPGQSPRLLIYKISDRFSGVPDRFSGSGSGTDFTLKISRVEADDVGIYYCFQGSHVPWTFGQGTKLEIKRTVAAPSVFIFPPSDEQLKSGTASVVCLLNNFYPREAKVQWKVDNALQSGNSQESVTEQDSKDSTYSLSSTLTLSKADYEKHKVYACEVTHQGLSSPVTKSFNRGEC	–	–	–	147	0.177	1.2e+06	–	–
BPC1117 (bispecific antibody, human IgG1, kappa, mAbdAb; dAb Kabat 89 I; also called 829H-(TVAAPS)2GS-154 (89I)) heavy: not shown light: DIVMTQSPLSLPVTPGEPASISCRSSQNIVHINGNTYLEWYLQKPGQSPRLLIYKISDRFSGVPDRFSGSGSGTDFTLKISRVEADDVGIYYCFQGSHVPWTFGQGTKLEIKRTVAAPSVFIFPPSDEQLKSGTASVVCLLNNFYPREAKVQWKVDNALQSGNSQESVTEQDSKDSTYSLSSTLTLSKADYEKHKVYACEVTHQGLSSPVTKSFNRGEC	–	–	–	0.231	0.000913	3.95e+06	–	–
BPC1111 (bispecific antibody, human IgG1, kappa, mAbdAb; dAb Kabat 89 E; also called 829H-(TVAAPS)2GS-154 (89E)) heavy: not shown light: DIVMTQSPLSLPVTPGEPASISCRSSQNIVHINGNTYLEWYLQKPGQSPRLLIYKISDRFSGVPDRFSGSGSGTDFTLKISRVEADDVGIYYCFQGSHVPWTFGQGTKLEIKRTVAAPSVFIFPPSDEQLKSGTASVVCLLNNFYPREAKVQWKVDNALQSGNSQESVTEQDSKDSTYSLSSTLTLSKADYEKHKVYACEVTHQGLSSPVTKSFNRGEC	0.031	0.000104	3.37e+06	0.037	0.000111	2.98e+06	–	–
BPC1095 (bispecific antibody, human IgG1, kappa, mAbdAb; dAb Kabat 89 T; also called 829H-(TVAAPS)2GS-154 (89T)) heavy: not shown light: DIVMTQSPLSLPVTPGEPASISCRSSQNIVHINGNTYLEWYLQKPGQSPRLLIYKISDRFSGVPDRFSGSGSGTDFTLKISRVEADDVGIYYCFQGSHVPWTFGQGTKLEIKRTVAAPSVFIFPPSDEQLKSGTASVVCLLNNFYPREAKVQWKVDNALQSGNSQESVTEQDSKDSTYSLSSTLTLSKADYEKHKVYACEVTHQGLSSPVTKSFNRGEC	5.76	0.0144	2.5e+06	4.69	0.0318	6.78e+06	–	–
A1D98GluL1 (antibody, human IgG1, kappa, V domains shown, CDRH3 variant of A1L1) VH: QVQLVQSGAEVKKPGSSVKVSCKASGFYIKDTYMHWVRQAPGQGLEWMGTIDPANGNTKYVPKFQGRVTITADESTSTAYMELSSLRSEDTAVYYCARSIYEDYHYDDYYAMDYWGQGTLVTVSS VL: DIVMTQSPLSLPVTPGEPASISCRSSQNIVHINGNTYLEWYLQKPGQSPRLLIYKISDRFSGVPDRFSGSGSGTDFTLKISRVEADDVGIYYCFQGSHVPWTFGQGTKLEIKR	–	–	–	–	–	–	0.779	0.873
A1H100A AlaL1 (antibody, human IgG1, kappa, V domains shown, CDRH3 variant of A1L1) VH: QVQLVQSGAEVKKPGSSVKVSCKASGFYIKDTYMHWVRQAPGQGLEWMGTIDPANGNTKYVPKFQGRVTITADESTSTAYMELSSLRSEDTAVYYCARSIYDDYAYDDYYAMDYWGQGTLVTVSS VL: DIVMTQSPLSLPVTPGEPASISCRSSQNIVHINGNTYLEWYLQKPGQSPRLLIYKISDRFSGVPDRFSGSGSGTDFTLKISRVEADDVGIYYCFQGSHVPWTFGQGTKLEIKR	–	–	–	–	–	–	0.172	–
A1S95TrpL1 (antibody, human IgG1, kappa, V domains shown, CDRH3 variant of A1L1) VH: QVQLVQSGAEVKKPGSSVKVSCKASGFYIKDTYMHWVRQAPGQGLEWMGTIDPANGNTKYVPKFQGRVTITADESTSTAYMELSSLRSEDTAVYYCARWIYDDYHYDDYYAMDYWGQGTLVTVSS VL: DIVMTQSPLSLPVTPGEPASISCRSSQNIVHINGNTYLEWYLQKPGQSPRLLIYKISDRFSGVPDRFSGSGSGTDFTLKISRVEADDVGIYYCFQGSHVPWTFGQGTKLEIKR	–	–	–	–	–	–	0.216	–
